Measurements as given in patent publication US20130064834A1 (published 2013).

Tests used:
[1] = target: T1, Chimeric protein #1 (mPro-hCat-mC-term-mmh) (mouse; human, UniProt Q80W65 35-694); test: ELISA, mAb coated, 1.2 nM antigen;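 further: antigen allowed to bind for 1 h at room temperature, then captured protein revealed with an HRP-linked polyclonal anti-myc antibody and read as optical density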
T1 chain: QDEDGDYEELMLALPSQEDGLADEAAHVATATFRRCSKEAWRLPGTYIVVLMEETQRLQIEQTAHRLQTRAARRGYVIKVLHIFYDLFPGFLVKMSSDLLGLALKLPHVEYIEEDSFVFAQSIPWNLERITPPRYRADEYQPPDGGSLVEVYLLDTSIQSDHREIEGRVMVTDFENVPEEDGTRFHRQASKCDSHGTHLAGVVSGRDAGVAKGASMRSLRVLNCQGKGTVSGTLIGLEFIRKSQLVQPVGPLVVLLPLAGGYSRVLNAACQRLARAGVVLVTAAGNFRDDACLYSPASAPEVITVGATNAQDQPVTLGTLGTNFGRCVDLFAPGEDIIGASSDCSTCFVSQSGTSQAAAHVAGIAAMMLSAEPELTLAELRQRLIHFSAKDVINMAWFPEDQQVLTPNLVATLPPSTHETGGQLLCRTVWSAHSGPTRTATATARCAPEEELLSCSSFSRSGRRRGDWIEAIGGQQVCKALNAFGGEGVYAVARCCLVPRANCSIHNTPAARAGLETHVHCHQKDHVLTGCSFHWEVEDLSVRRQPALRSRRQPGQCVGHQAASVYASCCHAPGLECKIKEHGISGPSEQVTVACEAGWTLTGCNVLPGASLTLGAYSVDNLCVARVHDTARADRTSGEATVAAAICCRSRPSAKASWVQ
Description: (§1) After 1 hr binding at RT, the plate was washed and bound test protein detected using HRP-conjugated anti-myc polyclonal antibody (++=OD>1.0; +=OD 0.4-1.0; −=OD<0.4).

[2] = target: T2, hPCSK9(D374Y)-mmh (human, UniProt Q8NBP7 31-692); test: ELISA, mAb coated, 1.2 nM antigen;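 further: antigen allowed to bind for 1 h at room temperature, then captured protein revealed with an HRP-linked polyclonal anti-myc antibody and read as optical density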
T2 construct: also called hPCSK(D374Y)-mmh
Description: as §1

[3] = target: T3, mouse PCSK9, myc-myc-his tagged (mouse, UniProt Q80W65 35-694); test: ELISA, mAb coated, 1.2 nM antigen;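 further: antigen allowed to bind for 1 h at room temperature, then captured protein revealed with an HRP-linked polyclonal anti-myc antibody and read as optical density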
T3 construct: also called mPCSK9-mmh; mPCSK9
Description: as §1

[4] = target: T4, Chimeric protein #3 (mPro-mCat-hC-term-mmh) (mouse; human); test: ELISA, mAb coated, 1.2 nM antigen;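 further: antigen allowed to bind for 1 h at room temperature, then captured protein revealed with an HRP-linked polyclonal anti-myc antibody and read as optical density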
T4 chain: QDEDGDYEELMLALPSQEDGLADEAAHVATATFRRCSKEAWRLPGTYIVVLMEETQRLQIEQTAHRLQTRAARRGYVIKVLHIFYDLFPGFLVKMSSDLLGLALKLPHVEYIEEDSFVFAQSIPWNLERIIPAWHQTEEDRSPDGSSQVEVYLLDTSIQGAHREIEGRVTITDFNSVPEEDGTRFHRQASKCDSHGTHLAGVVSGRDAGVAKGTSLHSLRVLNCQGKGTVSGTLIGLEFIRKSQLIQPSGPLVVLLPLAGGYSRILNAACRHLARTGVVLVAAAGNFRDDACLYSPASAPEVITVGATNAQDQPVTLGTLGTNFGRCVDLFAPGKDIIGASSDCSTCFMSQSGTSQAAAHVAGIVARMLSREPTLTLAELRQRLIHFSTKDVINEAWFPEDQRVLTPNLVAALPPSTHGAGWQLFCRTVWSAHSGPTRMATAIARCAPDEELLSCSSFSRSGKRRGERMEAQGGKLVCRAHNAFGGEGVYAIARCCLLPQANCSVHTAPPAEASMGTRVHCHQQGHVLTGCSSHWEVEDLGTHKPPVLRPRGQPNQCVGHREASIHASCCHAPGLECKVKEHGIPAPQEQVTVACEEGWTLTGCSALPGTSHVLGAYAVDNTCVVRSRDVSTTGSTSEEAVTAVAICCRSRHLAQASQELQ
Description: as §1

[5] = target: Chimeric protein #2 (hPro-mCat-mC-term-mmh) (human; mouse, UniProt Q80W65 19-694); test: ELISA, mAb coated, 1.2 nM antigen
Description: as §1

[6] = target: T5, Human PCSK9-myc-myc-his (human, UniProt Q8NBP7 31-692); test: ELISA, mAb coated, 1.2 nM antigen
T5 construct: also called hPCSK9-mmh; hPCSK9
Description: as §1

[7] = target: T5, Human PCSK9-myc-myc-his; test: SPR, mAb captured, 37C
Protocol: (§2) Each antibody was captured at a flow rate of 4 μl/min for 90 sec on a goat anti-mouse IgG polyclonal antibody surface created through direct chemical coupling to a BIACORE™ chip to form a captured antibody surface.

[8] = target: T5, Human PCSK9-myc-myc-his; test: SPR, mAb captured, 25C
Protocol: as §2

[9] = target: T5, Human PCSK9-myc-myc-his; test: SPR, mAb captured, 25C; remark: listed apart in the source
Protocol: (§3) Each selected antibody was captured at a flowrate of 2 μl/min for 6 min on a goat anti-human IgG polyclonal antibody surface created through direct chemical coupling to a BIACORE™ chip to form a captured antibody surface.

[10] = target: T5, Human PCSK9-myc-myc-his; test: SPR, mAb captured, 37C; remark: listed apart in the source
Protocol: as §3

[11] = target: T6, tagged rhesus monkey (Macaca mulata) PCSK9 (rhesus monkey (Macaca mulata), UniProt A8T666 31-692); test: SPR, 25C
T6 construct: also called mmPCSK9-mmh; mmPCSK9
T6 sequence (A8T666 31-692 limits assumed): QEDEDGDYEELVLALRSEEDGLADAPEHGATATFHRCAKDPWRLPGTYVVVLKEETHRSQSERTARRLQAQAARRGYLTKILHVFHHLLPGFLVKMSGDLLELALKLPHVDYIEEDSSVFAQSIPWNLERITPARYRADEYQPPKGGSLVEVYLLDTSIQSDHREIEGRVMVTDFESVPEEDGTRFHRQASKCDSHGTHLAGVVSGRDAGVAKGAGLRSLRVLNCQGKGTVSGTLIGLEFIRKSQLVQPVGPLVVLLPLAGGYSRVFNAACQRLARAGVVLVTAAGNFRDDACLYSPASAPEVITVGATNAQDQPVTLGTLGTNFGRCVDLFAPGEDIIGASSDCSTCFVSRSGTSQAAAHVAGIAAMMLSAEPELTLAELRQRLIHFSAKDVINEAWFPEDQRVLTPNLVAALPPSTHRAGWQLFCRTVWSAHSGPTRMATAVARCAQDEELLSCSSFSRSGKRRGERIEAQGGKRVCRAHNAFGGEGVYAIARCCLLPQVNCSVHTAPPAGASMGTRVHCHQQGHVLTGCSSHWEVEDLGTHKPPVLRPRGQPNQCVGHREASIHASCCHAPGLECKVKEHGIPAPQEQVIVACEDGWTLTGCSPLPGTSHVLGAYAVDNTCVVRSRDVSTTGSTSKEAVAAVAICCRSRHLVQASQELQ

Binder | OD [1] | OD [2] | OD [3] | OD [4] | OD [5] | OD [6] | Kd [7] | T1/2 [7] | Kd [8] | T1/2 [8] | Kd [9] | T1/2 [9] | Kd [10] | T1/2 [10] | T1/2 [11] | koff [11]
H1M495 (antibody, V domains shown, Hybridoma-derived chimeric antibody (human variable, mouse constant)) VH: EVQLVESGGGLVQPGRSLRLSCAASGFTFDDYAMHWVRQAPGKGLEWVSGINWNSGSIGYADSVKGRFTISRDNAKHSLYLQMNSLRPEDTALYYCVKEVTTGYYYGMDVWGQGTTVTVSS VL: DIQLTQSPSFLSASVGDRVTITCWASQGISSYLAWYQKKPGKAPNLLIYDASTLQSGVPSRFSGSGSGTEFTLTLSSLQPEDFATYYCQQLNIYPFTFGPGTKVDIK | < 0.4 od | > 1 od | < 0.4 od | > 1 od | < 0.4 od | > 1 od | 7.5 nM | 19 min | 0.44 nM | 222 min |  |  |  |  |  | 
H1H317P (antibody, V domains shown, Fully human antibody cloned from B cells, made in CHO cells) VH: EVQLVESGGGLVQPGGSLRLSCAVSGFTLSSYDMHWVRQPTGKGLEWVSAIGSTGDTYYPGSVKGRFTISRENAKNSLYLQMNSLRAGDTAVYYCAREGWDVPFDFWGQGTLVTVSS VL: AIQMTQSPSSLSASVGDRVTITCRASQDIRNDLGWYQQKPGKAPKLLIYAASSLQSGVPSRFSGSGSGTDFTLTISSLQPEDFATYYCLQDYNYPWTFGQGTKVEIK |  |  |  |  |  |  |  |  |  |  | 30.4 nM | 137 min | 18.6 nM | 70 min |  | 
H1M498 (antibody, V domains shown, Hybridoma-derived chimeric antibody (human variable, mouse constant)) VH: EVQLVESGGGLVKPGGSLRLSCAASGFTFSSYSMDWVRQAPGKGLEWVSSISSSSSYIYYADSVKGRFTISRDTAKNSLYLQMNSLRDEDTAVYYCAREGSSRLFDYWGQGTLVTVSS VL: DIQMTQSPSTLSASVGDRVTITCRASQSISSWLAWYQQRPGKAPKLLIYKASSLEGGVPSRFSGSGSGTEFTLTISSLQPEDFATYYCQQYNSYWYTFGQGTKLEIK | < 0.4 od | > 1 od | < 0.4 od | 0.4 to 1 od | < 0.4 od | > 1 od | 7.5 nM | 14 min | 6.4 nM | 30 min |  |  |  |  |  | 
H1H318P (antibody, V domains shown, Fully human antibody cloned from B cells, made in CHO cells) VH: QVQLQESGPGLVKPSETLSLTCTVSGDSINTYYWSWFRQPPGKGLEWIGYIYYSGTTNYNPSLKSRVTISIDTPRNQFSLKLISVTAADTAVYYCARERITMIRGVTLYYYSYGMDVWGQGTTVTVSS VL: DIQMTQSPSFLSASVGDRVTITCWASQDISSYLAWYQQKPGIAPKLLIYAASTLQSGVPSRFGGSGSGTEFTLTISSLQPEDFATYYCQQLNSYPRTFGQGTKVEIK | > 1 od | > 1 od | < 0.4 od | < 0.4 od | < 0.4 od | > 1 od |  |  |  |  | 0.972 nM | 59 min | 1.69 nM | 28 min | 3 min | 0.00369 s⁻¹
H1H320P (antibody, V domains shown, Fully human antibody cloned from B cells, made in CHO cells) VH: QVQLVQSGAEVKKPGASVKVSCKASGYTFTNYGISWVRQAPGQGLELMGWISGYNGNTNYAQELQARVTMTTDTSTSTAYMELRNLRSDDTAVYYCARDRVVVAAANYYFYSMDVWGQGTTVTVSS VL: DVVMTQSPLSLSVTLGQPASISCRSSQSLVYSDGDTYLNWFQQRPGQSPRRLIYKVSNRDSGVPDRFSGSGSGTAFTLKISGVEAEDVGVYYCMQATHWPRTFGQGTKVEIK | < 0.4 od | > 1 od | < 0.4 od | < 0.4 od | > 1 od | > 1 od |  |  |  |  | 0.771 nM | 28 min | 1.93 nM | 8 min | 36 min | 0.000317 s⁻¹
H1H321P (antibody, V domains shown, Fully human antibody cloned from B cells, made in CHO cells) VH: QITLKESGPTLVKPTQTLTLTCTFSGFSLITSGVGVGWIRQPPGKALEWLALIYWNGDKRYSPSLKSRLTITKDTSKNQVVLTMTNMDPVDTATYYCAHRITETSYYFYYGMDVWGQGTTVTVSS VL: not shown |  |  |  |  |  |  |  |  |  |  | 0.865 nM | 106 min | 3.36 nM | 23 min |  | 
H1H334P (antibody, V domains shown, Fully human antibody cloned from B cells, made in CHO cells) VH: QITLKESGPTLVKPSQTLTLTCTFSGFSLSTSGVGVGWIRQPPGKALEWLALIYWNSDKRYSPSLKSRLTITKDTSKNQVVLTMTNMDPVDTATYYCAHRHDSSSYYFYYGMDVWGQGTTVTVSS VL: not shown | > 1 od | > 1 od | < 0.4 od | < 0.4 od | < 0.4 od | > 1 od |  |  |  |  | 3.75 nM | 46 min | 15.9 nM | 8 min | 1 min | 0.00806 s⁻¹
H1H315P (antibody, V domains shown, Fully human antibody cloned from B cells, made in CHO cells) VH: QVQLVESGGGVVQPGRSLRLSCAASGFTFSSYGMHWVRQAPGKGLEWVAFIGFDGSNIYYGDSVRGRIIISRDNSENTLYLEMNSLRAEDTAVYYCAREKGLDWGQGTLVTVSS VL: not shown |  |  |  |  |  |  |  |  |  |  | 0.129 nM | 151 min | 0.413 nM | 35 min | 51 min | 0.000229 s⁻¹
H1M300 (antibody, V domains shown, Hybridoma-derived chimeric antibody (human variable, mouse constant)) VH: EMQLVESGGGLVQPGGSLRLSCAASGFTFSSHWMKWVRQAPGKGLEWVANINQDGSEKYYVDSVKGRFTISRDNAKNSLFLQMNSLRAEDTAVYYCARDIVLMVYDMDYYYYGMDVWGQGTTVTVSS VL: not shown | > 1 od | > 1 od | < 0.4 od |  | 0.4 to 1 od | > 1 od | 1.51 nM | 32 min | 0.399 nM | 170 min |  |  |  |  | 76 min | 0.000152 s⁻¹
